Reference: publication PMC7696055 (Pharmaceutics, 2020)

Key:
A431/CCKBR tumors = settings: mouse, in vivo, iv
Text: The image reconstruction and processing was accomplished by using VivoQuant 3.0 Patch1 software.

[1] = cited from earlier work
Text: The radiolabeled PP-F11N is a small molecular weight peptide (2.032 kDa), which can be reabsorbed in the proximal tu ...

Row | SMILES | location of radioactive signals in SPECT/CT (A431/CCKBR tumors) | radiation dose received by stomach (median) ([1]; MTC patients, highest organ dose) [Gy/GBq] | kidney radiation dose ([1]; six MTC patients)
1 | CCCC[C@H](NC(=O)[C@H](Cc1c[nH]c2ccccc12)NC(=O)CNC(=O)[C@H](Cc1ccc(O)cc1)NC(=O)[C@H](C)NC(=O)[C@@H](CCC(=O)O)NC(=O)[C@@H](CCC(=O)O)NC(=O)[C@@H](CCC(=O)O)NC(=O)[C@@H](CCC(=O)O)NC(=O)[C@@H](CCC(=O)O)NC(=O)[C@@H](CCC(=O)O)NC(=O)CN1CCN(CC(=O)O)CCN(CC(=O)O)CCN(CC(=O)O)CC1)C(=O)N[C@@H](CC(=O)O)C(=O)N[C@@H](Cc1ccccc1)C(N)=O [[^111In]In-PP-F11N, metal not drawn] | only detected in the excretion organs including kidneys and bladder |  | 
2 | CCCC[C@H](NC(=O)[C@H](Cc1c[nH]c2ccccc12)NC(=O)CNC(=O)[C@H](Cc1ccc(O)cc1)NC(=O)[C@H](C)NC(=O)[C@@H](CCC(=O)O)NC(=O)[C@@H](CCC(=O)O)NC(=O)[C@@H](CCC(=O)O)NC(=O)[C@@H](CCC(=O)O)NC(=O)[C@@H](CCC(=O)O)NC(=O)[C@@H](CCC(=O)O)NC(=O)CN1CCN(CC(=O)O)CCN(CC(=O)O)CCN(CC(=O)O)CC1)C(=O)N[C@@H](CC(=O)O)C(=O)N[C@@H](Cc1ccccc1)C(N)=O [[^177Lu]Lu-PP-F11N, metal not drawn] |  | 0.42 | relatively low kidney radiation dose
